Biological target: vertebrate calmodulin (CaM) (UniProt P0DP23)
Assay: ITC

Row | Binder | stoichiometry N
1 | LFPRAKSVSERLSILKGSRP [AQP0^CBD peptide L227A] | 1 peptide per CaM
2 | LFPRLKSVSERLSIAKGSRP [AQP0^CBD peptide L237A] | 2 peptides per CaM
3 | LFPRLKSASERLSILKGSRP [AQP0^CBD peptide V230A] | 1 peptide per CaM
4 | LFPRLKSVSERASILKGSRP [AQP0^CBD peptide L234A] | 2 peptides per CaM

— PMC3766450 (Nature structural & molecular biology, 2013)
